Measured values: patent publication US20210122824A1 (ADAGENE, published 2021)

T1: human LAG3 expressed on HEK293F cells (human, UniProt P18627 23-525)
T1 construct: whole, on cells
T1 sequence (looked up): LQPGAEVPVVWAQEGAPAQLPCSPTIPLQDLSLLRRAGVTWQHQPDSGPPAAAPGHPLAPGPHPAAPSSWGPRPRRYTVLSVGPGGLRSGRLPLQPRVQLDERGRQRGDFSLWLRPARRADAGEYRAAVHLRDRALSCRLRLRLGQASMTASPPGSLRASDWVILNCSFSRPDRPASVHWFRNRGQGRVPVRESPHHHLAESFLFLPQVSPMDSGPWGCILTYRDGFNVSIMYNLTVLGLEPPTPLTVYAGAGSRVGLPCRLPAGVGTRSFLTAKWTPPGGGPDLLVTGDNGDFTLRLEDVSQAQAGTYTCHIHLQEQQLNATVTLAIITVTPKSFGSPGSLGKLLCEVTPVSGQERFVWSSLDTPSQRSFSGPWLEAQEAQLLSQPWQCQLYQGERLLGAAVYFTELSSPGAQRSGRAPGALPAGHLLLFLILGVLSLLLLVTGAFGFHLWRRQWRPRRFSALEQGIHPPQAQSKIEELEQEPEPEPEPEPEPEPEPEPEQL

T2: human B7-H3 expressed on HEK293F cells (human, UniProt Q5ZPR3 29-534)
T2 construct: whole, on cells
T2 sequence (looked up): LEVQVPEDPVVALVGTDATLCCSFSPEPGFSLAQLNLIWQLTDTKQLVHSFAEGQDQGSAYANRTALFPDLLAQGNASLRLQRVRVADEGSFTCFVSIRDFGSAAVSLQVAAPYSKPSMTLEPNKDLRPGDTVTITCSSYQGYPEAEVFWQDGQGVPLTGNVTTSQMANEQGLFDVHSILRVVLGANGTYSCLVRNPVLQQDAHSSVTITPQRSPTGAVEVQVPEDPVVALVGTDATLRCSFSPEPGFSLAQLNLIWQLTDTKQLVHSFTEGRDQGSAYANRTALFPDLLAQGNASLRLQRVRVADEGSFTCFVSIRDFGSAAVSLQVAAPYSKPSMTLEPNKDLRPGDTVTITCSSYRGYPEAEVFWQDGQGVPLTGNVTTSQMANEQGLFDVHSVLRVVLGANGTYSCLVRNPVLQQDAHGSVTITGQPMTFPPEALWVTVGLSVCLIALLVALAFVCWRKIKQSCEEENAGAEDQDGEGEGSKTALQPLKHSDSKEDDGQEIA


What was measured:
[1] = molecular target: T3, human PD1 expressed on HEK293F cells (human, UniProt Q15116 25-288); test: flow cytometry on transfected HEK293F cells
T3 construct: whole, on cells
T3 sequence (Q15116 25-288): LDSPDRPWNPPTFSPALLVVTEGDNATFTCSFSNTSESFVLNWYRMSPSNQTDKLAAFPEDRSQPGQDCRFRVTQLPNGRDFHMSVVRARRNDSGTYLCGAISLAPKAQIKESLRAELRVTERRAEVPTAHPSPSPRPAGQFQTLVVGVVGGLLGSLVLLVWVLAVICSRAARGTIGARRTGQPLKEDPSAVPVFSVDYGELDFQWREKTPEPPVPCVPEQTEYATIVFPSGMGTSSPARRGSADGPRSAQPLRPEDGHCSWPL

[2] = molecular target: T4, human CTLA4 expressed on HEK293F cells (human, UniProt P16410 36-223); test: flow cytometry on transfected HEK293F cells
T4 construct: whole, on cells
T4 sequence (P16410 36-223): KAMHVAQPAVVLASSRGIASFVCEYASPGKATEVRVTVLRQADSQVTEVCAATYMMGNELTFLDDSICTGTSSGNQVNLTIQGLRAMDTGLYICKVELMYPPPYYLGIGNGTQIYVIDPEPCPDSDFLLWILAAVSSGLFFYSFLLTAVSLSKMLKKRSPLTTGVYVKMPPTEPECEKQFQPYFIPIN

[3] = molecular target: T1, human LAG3 expressed on HEK293F cells; test: flow cytometry on transfected HEK293F cells
[4] = molecular target: T5, human TIM3 expressed on HEK293F cells (human, UniProt Q8TDQ0 22-301); test: flow cytometry on transfected HEK293F cells
T5 construct: whole, on cells

[5] = molecular target: T2, human B7-H3 expressed on HEK293F cells; test: flow cytometry on transfected HEK293F cells
[6] = molecular target: T6, human PD-L1-Fc fusion protein (Sino Biological Cat #10084-H02H) (human, UniProt Q9NZQ7 19-239); test: competition ELISA, PD1-Fc (1 ug/mL) coated, biotinylated PD-L1-Fc mixed with antibody, HRP neutravidin; blocked ligand PD1-Fc
T6 construct: bought; not shown: Fc part of the bought fusion
T6 sequence (Q9NZQ7 19-239 limits assumed): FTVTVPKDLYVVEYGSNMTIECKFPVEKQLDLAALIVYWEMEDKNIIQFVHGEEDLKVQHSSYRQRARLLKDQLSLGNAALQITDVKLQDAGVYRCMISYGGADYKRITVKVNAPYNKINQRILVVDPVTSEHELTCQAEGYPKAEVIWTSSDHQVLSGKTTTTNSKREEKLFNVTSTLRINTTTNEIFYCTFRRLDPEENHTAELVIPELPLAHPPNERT

[7] = molecular target: T7, rhesus PD-L1 expressed on HEK293F cells (rhesus, UniProt F6VEW6 19-290); test: flow cytometry, HEK293F cells transiently expressing the target, 100 nM antibody, PE anti-human Fc; Mean (PE-A against FITC-A, GFP surrogate)
T7 construct: whole, on cells

[8] = molecular target: T3, human PD1 expressed on HEK293F cells; test: as above
[9] = molecular target: T4, human CTLA4 expressed on HEK293F cells; test: as above
[10] = molecular target: T1, human LAG3 expressed on HEK293F cells; test: as above
[11] = molecular target: T5, human TIM3 expressed on HEK293F cells; test: as above
[12] = molecular target: T2, human B7-H3 expressed on HEK293F cells; test: as above
[13] = molecular target: T8, human PD-L1 expressed on cell surface (human, UniProt Q9NZQ7 19-290); test: blocking by flow cytometry, HEK293F cells expressing full-length human PD-L1, 100 nM antibody then 100 nM biotinylated PD1-His (blocked ligand), Alexa fluor 633 streptavidin; isotype control panel Q2 35.1%
T8 construct: whole, on cells; also called full-length human PD-L1; cell surface PD-L1
T8 sequence (Q9NZQ7 19-290): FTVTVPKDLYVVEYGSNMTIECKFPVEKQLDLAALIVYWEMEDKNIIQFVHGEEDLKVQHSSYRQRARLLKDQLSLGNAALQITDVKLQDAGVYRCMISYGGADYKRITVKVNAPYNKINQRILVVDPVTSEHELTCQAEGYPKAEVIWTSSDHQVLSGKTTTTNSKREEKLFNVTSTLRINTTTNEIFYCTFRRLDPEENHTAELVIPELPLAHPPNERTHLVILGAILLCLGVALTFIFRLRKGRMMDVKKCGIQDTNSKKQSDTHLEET

[14] = molecular target: mouse PD-L1 (construct not stated) (mouse, UniProt Q9EP73 19-238, limits assumed); test: SPR (Biacore)
Sequence of mouse PD-L1 (construct not stated) (Q9EP73 19-238 limits assumed): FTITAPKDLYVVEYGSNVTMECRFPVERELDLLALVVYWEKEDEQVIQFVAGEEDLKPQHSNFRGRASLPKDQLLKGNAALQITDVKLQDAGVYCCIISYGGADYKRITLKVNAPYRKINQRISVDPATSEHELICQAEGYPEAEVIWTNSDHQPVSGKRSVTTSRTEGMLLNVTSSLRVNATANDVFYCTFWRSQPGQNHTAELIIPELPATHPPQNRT

[15] = molecular target: T7, rhesus PD-L1 expressed on HEK293F cells; test: flow cytometry on transfected HEK293F cells, 100 nM antibody
[16] = molecular target: T9, human PD-L1-His6 (Sino Biological #10084-H08H) (human, UniProt Q9NZQ7 19-239); test: SPR (Biacore T200), antibody captured by anti-human Fc, PD-L1-His6 in solution
T9 construct: bought; not shown: His6 tag
T9 sequence (Q9NZQ7 19-239 limits assumed): as the sequence (Q9NZQ7 19-239 limits assumed) above

[17] = molecular target: T8, human PD-L1 expressed on cell surface; test: flow cytometry, HEK293F cells transiently expressing the target, 100 nM antibody, PE anti-human Fc; Mean (PE-A against FITC-A, GFP surrogate)
[18] = molecular target: T10, mouse PD-L1 expressed on HEK293F cells (mouse, UniProt Q9EP73 19-290); test: as above
T10 construct: whole, on cells
T10 sequence (Q9EP73 19-290): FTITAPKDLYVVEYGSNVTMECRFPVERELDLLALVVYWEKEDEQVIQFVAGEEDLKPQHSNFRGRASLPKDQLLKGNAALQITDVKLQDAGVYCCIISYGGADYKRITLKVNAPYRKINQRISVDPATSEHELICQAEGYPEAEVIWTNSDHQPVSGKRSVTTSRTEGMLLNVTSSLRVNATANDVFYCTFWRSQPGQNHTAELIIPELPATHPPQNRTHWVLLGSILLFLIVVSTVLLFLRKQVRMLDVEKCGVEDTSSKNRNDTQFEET

Row | Binder | binding result [1] | binding result [2] | binding result [3] | binding result [4] | binding result [5] | IC50 (read off the curve) [6] [nM] | Mean [7] | Mean [8] | Mean [9] | Mean [10] | Mean [11] | Mean [12] | Q2 (percent of cells positive for GFP and for the APC signal of PD1-His, antibody present) [13] [%] | binding result [14] | binding result [15] | Kd [16] [nM] | koff [16] [s⁻¹] | kon [16] [M⁻¹ s⁻¹] | Mean [17] | Mean [18]
1 | TY21420 (antibody, V domains shown, IgG1 (wild type) made from Fab B15016, from HEK293F cells) VH: EVQLVESGGGLVQPGGSLRLSCAASGYSISSGYYWGWIRQAPGKGLEWIGIIYPSGGGTNYAQKFQGRVTISRDNSKNTLYLQLNSLRAEDTAVYYCARGGGLGFDYWGQGTLVTVSS VL: DIQLTQSPSSLSASVGDRVTITCRASQTIPSFLNWYQQKPGKAPKLLIYAASSLQSGVPSRFSGSGSGTDFTLTISSLQPEDFATYYCQHYTSWPRQFTFGQGTKVEIKR | no binding (tested: 100 nM) | no binding (tested: 100 nM) | no binding (tested: 100 nM) | no binding (tested: 100 nM) | no binding (tested: 100 nM) | ~6 | 164000 | 3710 | 4570 | 4630 | 4660 | 3780 | 1.53 |  |  |  |  |  |  | 
2 | TY21418 (antibody, V domains shown, IgG1 (wild type) made from Fab B13002, from HEK293F cells) VH: EVQLVESGGGLVQPGGSLRLSCAASGYTFSNYGIHWVRQAPGKGLEWIGWIYPSGGGTKYAQKFQGRVTISRDNSKNTLYLQLNSLRAEDTAVYYCAREGGGYGYALDYWGQGTLVTVSS VL: DIQLTQSPSSLSASVGDRVTITCRASQGVSSYLAWYQQKPGKAPKLLIYDASNLETGVPSRFSGSGSGTDFTLTISSLQPEDFATYYCQQYDAWPYTFGQGTKVEIKR | no binding (tested: 100 nM) | no binding (tested: 100 nM) | no binding (tested: 100 nM) | no binding (tested: 100 nM) | no binding (tested: 100 nM) | ~6 |  | 2570 | 3460 | 2830 | 2480 |  | 0.29 | no binding | binds | 0.399 | 0.000179 | 448000 | 227000 | 2470
3 | TY21419 (antibody, V domains shown, IgG1 (wild type) made from Fab B13004, from HEK293F cells) VH: EVQLVESGGGLVQPGGSLRLSCAASGYTFSNYGIHWVRQAPGKGLEWIGWIYPSGGGTKYAQKFQGRVTISRDNSKNTLYLQLNSLRAEDTAVYYCAREGGGYGYALDYWGQGTLVTVSS VL: DIQLTQSPSSLSASVGDRVTITCRASQGISPWLAWYQQKPGKAPKLLIYDASNRATGIPSRFSGSGSGTDFTLTISSLQPEDFATYYCQQYDSWPYTFGQGTKVEIKR | no binding (tested: 100 nM) | no binding (tested: 100 nM) | no binding (tested: 100 nM) | no binding (tested: 100 nM) | no binding (tested: 100 nM) | ~6 | 201000 | 3110 | 2330 | 3390 | 2310 | 2380 | 0.58 | no binding |  | 0.465 | 0.000143 | 307000 | 219000 | 2500
